The values that follow come from PMC7615827.

For the experiment, the target named is ABD-AS25 (albumin binding domain fused to monobody AS25; ABD-…-AS25-Cys). Briefly: ITC.

Consider “Bcr-Abl SH2 domain (from UniProt P00519 127-217) (domain or fragment)”, for which the Kd was determined as 42.4 nM and the stoichiometry N worked out at 1.

“Human Serum Albumin (from UniProt P02768 25-609) (natural protein)” showed a Kd of 5.11 nM.
